Laboratory results reported in patent US20110044985A1 (RINAT NEUROSCIENCE, published 2011).
Blank lines part the entries; values can stand above or below the binder they belong to. No end group written: not given here.

Key:
28 KGAIIGLMVGGVVIAG = biological target: T1, 28 KGAIIGLMVGGVVIAG (also: biotinylated (position not given here)); assay: ELISA, biotinylated peptide on streptavidin-coated plate, goat anti-human kappa HRP
T1 construct: It differs from m21 (Aβ peptide 28-42, not biotinylated, no added glycine); also called Biotinylated Aβ peptide with amino acids 28-42 and a glycine at the C-terminus; 28-42 15-mer
T1 peptide: KGAIIGLMVGGVVIAG
Method: (§1) Various Aβ peptides (assigned SEQ ID NO:18-26, 31, and 27-29 from top to bottom sequences) were immobilized on ELISA plates. Antibodies were incubated for 1 hour with various immobilized peptides. Antibody 6G bound to immobilized Aβ peptides were measured using goat anti-human kappa HRP conjugated secondary antibody. […] “NB” refers to no binding detected.
(§2) ELISA was used for measuring binding of antibody 6G and variants to biotinylated Aβ peptides. NUNC maxisorp plates were coated with 6 ug/ml of streptavidin (Pierce, 21122) in PBS pH 7.4 for more than 1 h at 4° C. Plates were blocked with 1% BSA in PBS buffer pH 7.4. After washing, biotinylated Aβ peptides in PBS pH 7.4 were incubated 1 hour at room temperature. Primary antibody (from cell supernatants, serum containing anti-Aβ antibody, or purified full antibody or Fabs at desired dilution) was incubated with the immobilized Aβ peptides for 1 h at room temperature. After washing, plates were incubated with secondary antibody, a HRP conjugated goat anti-human kappa chain antibody (MP Biomedicals, 55233) at 1:5000 dilution. After washing, bound secondary antibody was measured by adding TMB substrate (KPL, 50-76-02, 50-65-02). HRP reaction was stopped by adding 1M phosphoric acid and absorbance at 450 nm was measured.

[1] = biological target: T2, Biotinylated Aβ peptide with amino acids 19-33 and a glycine at the C-terminus (also: biotinylated (position not given here)); assay: as above
T2 peptide: FFAEDVGSNKGAIIGG
Method: as §1, §2

[2] = biological target: T3, Biotinylated Aβ peptide with amino acids 26-40 and a glycine at the C-terminus (also: biotinylated (position not given here)); assay: as above
T3 peptide: SNKGAIIGLMVGGVVG
Method: as §1, §2

[3] = biological target: T4, Biotinylated Aβ peptide with amino acids 27-41 and a glycine at the C-terminus (also: biotinylated (position not given here)); assay: as above
T4 peptide: NKGAIIGLMVGGVVIG
Method: as §1, §2

[4] = biological target: T5, Biotinylated Aβ peptide with amino acids 24-33 and a glycine at the C-terminus (also: biotinylated (position not given here)); assay: as above
T5 peptide: VGSNKGAIIGG
Method: as §1, §2

[5] = biological target: T6, Biotinylated Aβ peptide with amino acids 26-35 and a glycine at the C-terminus (also: biotinylated (position not given here)); assay: as above
T6 peptide: SNKGAIIGLMG
Method: as §1, §2

Aβ1-42 = biological target: T7, Aβ1-42; assay: ELISA, nonbiotinylated peptide on plate
T7 construct: also called 1-42 (WT); Aβ peptide 1-42
T7 sequence (peptide, as listed by the source): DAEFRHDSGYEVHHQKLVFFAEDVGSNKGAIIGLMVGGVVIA
Method: (§3) ELISA was used for measuring binding of antibody 6G and variants to nonbiotinylated Aβ peptides. NUNC maxisorp plates were coated with 2.5 ug/ml of Aβ peptides in PBS pH 7.4 for more than 1 hour at 4° C. Plates were blocked with 1% BSA in PBS buffer pH 7.4. Primary antibody (from cell supernatants, serum containing anti-Aβ antibody, or purified full antibody or Fabs at desired dilution) was incubated with the immobilized Aβ peptides for 1 h at room temperature. After washing, the plates were incubated with secondary antibody, a HRP conjugated goat anti-human kappa chain antibody (MP Biomedicals, 55233) at 1:5000 dilution. After washing, bound secondary antibody was measured by adding TMB substrate (KPL, 50-76-02, 50-65-02). The HRP reaction was stopped by adding 1M phosphoric acid and absorbance at 450 nm was measured.
(§4) All amino acid substitutions of the variants shown in Table 3 are described relative to the sequence of 6G. Binding was determined by ELISA described above with nonbiotinylated Aβ₁₋₄₀ or Aβ₁₋₄₂ immobilized on the surface of an ELISA plate.

Aβ1-40 = biological target: T8, Aβ1-40; assay: ELISA, nonbiotinylated peptide on plate
T8 construct: also called 1-40 (WT); Aβ peptide 1-40
T8 sequence (peptide, as listed by the source): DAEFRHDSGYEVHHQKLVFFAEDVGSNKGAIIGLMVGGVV
Method: as §3, §4

binding result (28 KGAIIGLMVGGVVIAG): no binding (tested: 10 ug/ml)
binding result [1]: no binding (tested: 10 ug/ml)
binding result [2]: no binding (tested: 10 ug/ml)
binding result [3]: no binding (tested: 10 ug/ml)
binding result [4]: no binding (tested: 10 ug/ml)
binding result [5]: no binding (tested: 10 ug/ml)
B1: antibody 6G (antibody, V domains shown)
VH: QVQLVQSGAEVKKPGASVKVSCKASGYTFTTYAIHWVRQAPGQGLEWMGFTSPYSGVSNYNQKFKGRVTMTRDTSTSTVYMELSSLRSEDTAVYYCARFDNYDRGYVRDYWGQGTLVTVSS
VL: DIVMTQSPDSLAVSLGERATINCRASESVDNDRISFLNWYQQKPGQPPKLLIYAATKQGTGVPDRFSGSGSGTDFTLTISSLQAEDVAVYYCQQSKEFPWSFGGGTKVEIKR
notes: Full antibody; human IgG2a constant region with A330P331 to S330S331, human kappa; also called 6G monoclonal antibody; 6G full antibody

A450 ELISA (Aβ1-42): 0.12 A450
B2: 6G light chain mutant variant 10E (S95L) (antibody, V domains shown)
VH: QVQLVQSGAEVKKPGASVKVSCKASGYTFTTYAIHWVRQAPGQGLEWMGFTSPYSGVSNYNQKFKGRVTMTRDTSTSTVYMELSSLRSEDTAVYYCARFDNYDRGYVRDYWGQGTLVTVS
VL: DIVMTQSPDSLAVSLGERATINCRASESVDNDRISFLNWYQQKPGQPPKLLIYAATKQGTGVPDRFSGSGSGTDFTLTISSLQAEDVAVYYCQQLKEFPWSFGGGTKVEIKR

A450 ELISA (Aβ1-42): 0.19 A450
B3: 6G light chain mutant variant 7F (Q94K) (antibody, V domains shown)
VH: QVQLVQSGAEVKKPGASVKVSCKASGYTFTTYAIHWVRQAPGQGLEWMGFTSPYSGVSNYNQKFKGRVTMTRDTSTSTVYMELSSLRSEDTAVYYCARFDNYDRGYVRDYWGQGTLVTVS
VL: DIVMTQSPDSLAVSLGERATINCRASESVDNDRISFLNWYQQKPGQPPKLLIYAATKQGTGVPDRFSGSGSGTDFTLTISSLQAEDVAVYYCQKSKEFPWSFGGGTKVEIKR

A450 ELISA (Aβ1-42): 0.14 A450
B4: 6G light chain mutant variant 5B (Q94G) (antibody, V domains shown)
VH: QVQLVQSGAEVKKPGASVKVSCKASGYTFTTYAIHWVRQAPGQGLEWMGFTSPYSGVSNYNQKFKGRVTMTRDTSTSTVYMELSSLRSEDTAVYYCARFDNYDRGYVRDYWGQGTLVTVS
VL: DIVMTQSPDSLAVSLGERATINCRASESVDNDRISFLNWYQQKPGQPPKLLIYAATKQGTGVPDRFSGSGSGTDFTLTISSLQAEDVAVYYCQGSKEFPWSFGGGTKVEIKR

A450 ELISA (Aβ1-42): 0.2 A450
B5: 6G light chain mutant variant 6E (E97P) (antibody, V domains shown)
VH: QVQLVQSGAEVKKPGASVKVSCKASGYTFTTYAIHWVRQAPGQGLEWMGFTSPYSGVSNYNQKFKGRVTMTRDTSTSTVYMELSSLRSEDTAVYYCARFDNYDRGYVRDYWGQGTLVTVS
VL: DIVMTQSPDSLAVSLGERATINCRASESVDNDRISFLNWYQQKPGQPPKLLIYAATKQGTGVPDRFSGSGSGTDFTLTISSLQAEDVAVYYCQQSKPFPWSFGGGTKVEIKR

A450 ELISA (Aβ1-42): 0.31 A450
B6: 6G heavy chain mutant variant 7D (N101C) (antibody, V domains shown)
VH: QVQLVQSGAEVKKPGASVKVSCKASGYTFTTYAIHWVRQAPGQGLEWMGFTSPYSGVSNYNQKFKGRVTMTRDTSTSTVYMELSSLRSEDTAVYYCARFDCYDRGYVRDYWGQGTLVTVS
VL: DIVMTQSPDSLAVSLGERATINCRASESVDNDRISFLNWYQQKPGQPPKLLIYAATKQGTGVPDRFSGSGSGTDFTLTISSLQAEDVAVYYCQQSKEFPWSFGGGTKVEIKR

A450 ELISA (Aβ1-42): 0.18 A450
B7: 6G light chain mutant variant 7E (Q94R) (antibody, V domains shown)
VH: QVQLVQSGAEVKKPGASVKVSCKASGYTFTTYAIHWVRQAPGQGLEWMGFTSPYSGVSNYNQKFKGRVTMTRDTSTSTVYMELSSLRSEDTAVYYCARFDNYDRGYVRDYWGQGTLVTVS
VL: DIVMTQSPDSLAVSLGERATINCRASESVDNDRISFLNWYQQKPGQPPKLLIYAATKQGTGVPDRFSGSGSGTDFTLTISSLQAEDVAVYYCQRSKEFPWSFGGGTKVEIKR

A450 ELISA (Aβ1-40): 0.21 A450
B8: 6G heavy chain mutant variant 8H (N101H) (antibody, V domains shown)
VH: QVQLVQSGAEVKKPGASVKVSCKASGYTFTTYAIHWVRQAPGQGLEWMGFTSPYSGVSNYNQKFKGRVTMTRDTSTSTVYMELSSLRSEDTAVYYCARFDHYDRGYVRDYWGQGTLVTVS
VL: DIVMTQSPDSLAVSLGERATINCRASESVDNDRISFLNWYQQKPGQPPKLLIYAATKQGTGVPDRFSGSGSGTDFTLTISSLQAEDVAVYYCQQSKEFPWSFGGGTKVEIKR
